Test results taken from publication PMC9523886.
Where two headings read alike, the source gives them in different places.

Columns and labels:
Experiment in all cases: FCCS
[1] = molecular target: GFP-DscIA (Discoidin I, paralog A, fused with GFP) (D. discoideum)
[2] = molecular target: GFP-DscIA (Discoidin I, paralog A, fused with GFP) (D. discoideum); remark: listed apart in the source
[3] = molecular target: GFP-DscIA (Discoidin I, paralog A, fused with GFP) (D. discoideum); remark: listed apart in the source

mCh-MyoII (mCherry-tagged Myosin II) (from UniProt P08799 1-2116) (natural protein)
Kd [1]: 2800 nM
Kd [2]: 1900 nM
Kd [3]: 2900 nM
